Earlier results in paper doi:10.1101/2025.09.24.678334.

Biological target: TATA-binding protein (Homo sapiens) (UniProt P20226)
UniProt P20226, sequence (P20226 whole entry): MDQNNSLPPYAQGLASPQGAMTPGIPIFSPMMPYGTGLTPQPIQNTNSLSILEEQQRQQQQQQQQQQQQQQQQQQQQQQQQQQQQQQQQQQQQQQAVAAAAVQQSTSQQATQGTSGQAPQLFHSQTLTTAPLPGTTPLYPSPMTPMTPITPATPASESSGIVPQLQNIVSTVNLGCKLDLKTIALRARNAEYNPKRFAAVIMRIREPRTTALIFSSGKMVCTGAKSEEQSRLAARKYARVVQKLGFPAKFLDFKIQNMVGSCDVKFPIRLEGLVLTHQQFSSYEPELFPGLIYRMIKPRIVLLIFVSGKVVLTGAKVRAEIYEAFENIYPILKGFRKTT

Question: Which Kd does the source give for Importin 9 (from UniProt Q96P70) here?
Answer: The Kd was 1 nM.
